Assay results: paper PMC8887465

T1: PemK WT (Staphylococcus aureus CH-91 (plasmid …, UniProt L7PFJ6 1-112))
T1 sequence: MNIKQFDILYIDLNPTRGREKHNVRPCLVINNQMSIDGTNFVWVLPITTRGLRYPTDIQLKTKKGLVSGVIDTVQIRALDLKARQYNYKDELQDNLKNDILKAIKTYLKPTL


Key:
[1] = target: Staphylococcus aureus PemK toxin, wild type (Staphylococcus aureus CH-91 (plasmid pCH91)); assay: SEC-MALS
[2] = target: T1, PemK WT; assay: NMR titration

Molecule | stoichiometry N [1] | binding result [2]
Staphylococcus aureus PemK toxin, wild type (enzyme) | 2 | 
UUUAUUAA (ssRNA, deoxyuridine at position 3 (dU3), rest RNA) [ssRNA UUdUAUUAA] |  | binds
